Results from patent publication US20200017592A1.
Where two headings read alike, the source gives them in different places.

T1: human IL-36R (IL1RL2) on primary human cells (human) (UniProt Q9HB29)
T1 sequence (looked up): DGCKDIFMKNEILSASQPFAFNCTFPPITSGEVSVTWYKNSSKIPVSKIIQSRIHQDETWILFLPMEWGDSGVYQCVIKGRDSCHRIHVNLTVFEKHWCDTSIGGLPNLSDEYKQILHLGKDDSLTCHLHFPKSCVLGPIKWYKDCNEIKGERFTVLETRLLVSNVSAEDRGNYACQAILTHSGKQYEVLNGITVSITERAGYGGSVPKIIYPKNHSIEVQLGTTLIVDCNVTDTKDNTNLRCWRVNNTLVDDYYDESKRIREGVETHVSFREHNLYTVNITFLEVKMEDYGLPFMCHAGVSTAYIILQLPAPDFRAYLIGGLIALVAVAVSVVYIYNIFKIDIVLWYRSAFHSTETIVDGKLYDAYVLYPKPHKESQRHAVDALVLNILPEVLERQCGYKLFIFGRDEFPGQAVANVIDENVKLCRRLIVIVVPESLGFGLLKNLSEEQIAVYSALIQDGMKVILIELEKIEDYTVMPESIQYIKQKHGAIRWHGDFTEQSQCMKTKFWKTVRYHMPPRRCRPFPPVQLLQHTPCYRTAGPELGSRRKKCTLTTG


How the values were obtained:
[1] = biological target: Macaca fascicularis IL-36R extracellular domain expressed with a C-terminal myc-myc-hexahistidine tag (Macaca fascicularis); experiment: SPR Biacore T200, mAb captured by anti-hFc, 25C, PBS-T pH 6.0
[2] = biological target: Macaca fascicularis IL-36R extracellular domain expressed with a C-terminal myc-myc-hexahistidine tag (Macaca fascicularis); experiment: SPR Biacore T200, mAb captured by anti-hFc, 25C, PBS-T pH 7.4
[3] = biological target: Macaca fascicularis IL-36R extracellular domain expressed with a C-terminal myc-myc-hexahistidine tag (Macaca fascicularis); experiment: SPR Biacore T200, mAb captured by anti-hFc, 37C, PBS-T pH 7.4
[4] = biological target: Macaca fascicularis IL-36R extracellular domain expressed with a C-terminal myc-myc-hexahistidine tag (mfIL-36R-MMH) (Macaca fascicularis); experiment: SPR Biacore 4000, mAb captured on anti-hFc, 37C
[5] = biological target: Macaca fascicularis IL-36R extracellular domain expressed with a C-terminal myc-myc-hexahistidine tag (Macaca fascicularis); experiment: SPR (Biacore 4000), mAb captured on anti-human Fc, 25°C
[6] = biological target: Macaca fascicularis IL-36R extracellular domain expressed with a C-terminal myc-myc-hexahistidine tag (Macaca fascicularis); experiment: SPR Biacore T200, mAb captured by anti-hFc, 37C, PBS-T pH 6.0
[7] = biological target: T1, human IL-36R (IL1RL2) on primary human cells (human); experiment: cell-based or functional assay
[8] = biological target: Macaca fascicularis IL-36R on cells (Macaca fascicularis); experiment: cell-based or functional assay
[9] = biological target: full-length human IL-36R on cells (human) (UniProt Q9HB29); experiment: cell-based or functional assay
[10] = biological target: full-length human IL-36R on cells (human) (UniProt Q9HB29)
[11] = biological target: full-length human IL-36R on cells (human) (UniProt Q9HB29); remark: listed apart in the source

Chain of Macaca fascicularis IL-36R on cells (Macaca fascicularis) (chain, as listed by the source): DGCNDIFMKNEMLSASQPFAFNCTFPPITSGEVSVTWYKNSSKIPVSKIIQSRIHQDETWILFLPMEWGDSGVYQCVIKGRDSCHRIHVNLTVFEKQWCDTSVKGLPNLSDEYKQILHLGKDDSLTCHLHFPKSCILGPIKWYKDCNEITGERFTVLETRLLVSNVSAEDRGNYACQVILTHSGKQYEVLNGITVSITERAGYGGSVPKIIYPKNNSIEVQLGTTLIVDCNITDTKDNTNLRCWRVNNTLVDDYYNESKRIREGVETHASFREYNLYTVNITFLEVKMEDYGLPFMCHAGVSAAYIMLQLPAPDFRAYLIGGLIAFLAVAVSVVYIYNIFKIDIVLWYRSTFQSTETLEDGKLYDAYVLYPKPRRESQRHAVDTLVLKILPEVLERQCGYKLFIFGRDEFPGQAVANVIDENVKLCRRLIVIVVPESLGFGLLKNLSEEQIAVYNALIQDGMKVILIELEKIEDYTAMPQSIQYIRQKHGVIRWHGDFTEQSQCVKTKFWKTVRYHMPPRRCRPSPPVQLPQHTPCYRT

100 nM mfIL-36R-MMH Bound (RU) [1] | koff [1] | t½ [1] | 100 nM mfIL-36R-MMH Bound (RU) [2] | koff [2] | t½ [2] | 100 nM mfIL-36R-MMH Bound (RU) [3] | koff [3] | t½ [3] | 100 nM mfIL-36R-MMH Bound (RU) [4] | Kd [4] | koff [4] | kon [4] | t1/2 [4] | 100 nM mfIL-36R-MMH Bound (RU) [5] | Kd [5] | koff [5] | kon [5] | t½ [5] | 100 nM mfIL-36R-MMH Bound (RU) [6] | Binder | further results
80 RU | 0.00171 s⁻¹ | 7 min | 91 RU | 0.000821 s⁻¹ | 14 min | 108 RU | 0.0018 s⁻¹ | 6 min | 67 RU | 27.8 nM | 0.00198 s⁻¹ | 71400 M⁻¹ s⁻¹ | 6 min | 48 RU | 10.6 nM | 0.000635 s⁻¹ | 60200 M⁻¹ s⁻¹ | 18 min | 97 RU | H4H14700P2 (antibody, human IgG4 S228P, kappa, V domains shown) VH: EVQLVESGGGLVQPGRSLRLSCAASGFTFDDYAMHWVRQTPGKGLEWVSVISWNSDVIAYSDSVKGRFTISRDNAKNSLYLQMNSLGTEDTALYYCAKGHNWNFFDYWGQGTLVTVSS VL: EIVLTQSPATLSLSPGERATLSCRASQSVSSYLAWYQQKPGQAPRLLIYNVANRATDIPARFSGSGSGTDFTLTISGLEPEDFAVYFCQQRSNWPLTFGGGTKVEIKR | koff [6]: 0.00333 s⁻¹; t½ [6]: 3 min
47 RU | 0.0015 s⁻¹ | 8 min | 57 RU | 0.000752 s⁻¹ | 15 min | 66 RU | 0.00169 s⁻¹ | 7 min | 75 RU | 30.4 nM | 0.00181 s⁻¹ | 59600 M⁻¹ s⁻¹ | 6 min | 51 RU | 12.9 nM | 0.000579 s⁻¹ | 45000 M⁻¹ s⁻¹ | 20 min | 58 RU | H4H14708P2 (antibody, human IgG4 S228P, kappa, V domains shown) VH: EVQLVESGGDLVQPGRSLRLSCAASGFTFDDYAMHWVRQAPGKGLEWVSVISWNSDVIAYSDSVKGRFTISRDNAKNSLYLQMNSLRTEDTALYYCTKGHKWSFFDYWGQGTLVTVSS VL: EIVLTQSPATLSLSPGERATLSCRASQSISSYLAWYQQKPGQAPRLLIFNVANRATDIPARFSGSGSGTDFTLTISSLEPEDFAVYYCQQRSNWPLTFGGGTKVEIKR | koff [6]: 0.0031 s⁻¹; t½ [6]: 4 min
48 RU | 0.00112 s⁻¹ | 10 min | 57 RU | 0.000519 s⁻¹ | 22 min | 92 RU | 0.000987 s⁻¹ | 12 min | 66 RU | 17.7 nM | 0.000871 s⁻¹ | 49100 M⁻¹ s⁻¹ | 13 min | 34 RU | 14.3 nM | 0.000401 s⁻¹ | 28000 M⁻¹ s⁻¹ | 29 min | 80 RU | H4H14709P (antibody, human IgG4 S228P, kappa, V domains shown) VH: EVQLVESGGGLVQPGGSLRLSCAASGFTFSDYAMSWVRQAPGKGLEWVSGISGNGGDTYYGDFVKGRFTISRDNSKNTLYLQMNSLRGEDTAAYFCVIDLDYWGQGTLVTVSS VL: DIQMTQSPSTLSASEGDRVTITCRASQSISSWLAWYQQKPGKAPRLLIYKASILGDGVPSRFSGSGSGTEFTLTISSLQPDDFATYYCHQYNSYLWTFGQGTKVEIKR | koff [6]: 0.00294 s⁻¹; t½ [6]: 4 min
– | – | – | – | – | – | – | – | – | – | – | – | – | – | – | – | – | – | – | – | rhIL-36β/IL-1F8 [aa5-157] (ligand, human, UniProt Q9NZH7 5-157, looked up) REAAPKSYAIRDSRQMVWVLSGNSLIAAPLSRSIKPVTLHLIACRDTEFSDKEKGNMVYLGIKGKDLCLFCAEIQGKPTLQLKLQGSQDNIGKDTCWKLVGIHTCINLDVRESCFMGTLDQWGIGVGRKKWKSSFQHHHLRKKDKDFSSMRTN | EC50[M], IL-8 production, Intestinal MyoFibroblasts (InMyoFib), hIL-36β [7]: 1.18e-09 M; EC50[M], IL-8 production, Normal Epidermal Keratinocytes (NHEK), hIL-36β [7]: 1.18e-09 M; EC50[M], IL-8 production, PB-derived CD14+ Monocytes, hIL-36β [7]: 2.63e-09 M
– | – | – | – | – | – | – | – | – | – | – | – | – | – | – | – | – | – | – | – | human IL-36β (ligand, UniProt Q9NZH7 5-157, looked up) REAAPKSYAIRDSRQMVWVLSGNSLIAAPLSRSIKPVTLHLIACRDTEFSDKEKGNMVYLGIKGKDLCLFCAEIQGKPTLQLKLQGSQDNIGKDTCWKLVGIHTCINLDVRESCFMGTLDQWGIGVGRKKWKSSFQHHHLRKKDKDFSSMRTN | EC50, NFκB-luciferase, HEK293/NFκB-luc/MfIL-36R cells [8]: 0.27 nM; EC50, NFκB-luciferase, HEK293/NFκB-luc/hIL-36R cells [9]: 0.014 nM; EC50 (read off the curve) of hIL36β, NFκB-luciferase RLU, in the presence of 0.3 nM REGN6490 [10]: 0.008 nM; EC50 (read off the curve) of hIL36β, NFκB-luciferase RLU, in the presence of 1 nM REGN6490 [10]: 0.02 nM; EC50 (read off the curve) of hIL36β, NFκB-luciferase RLU, in the presence of 3 nM REGN6490 [10]: 0.08 nM; EC50 (read off the curve) of hIL36β, NFκB-luciferase RLU, in the presence of 9 nM REGN6490 [10]: 0.3 nM; EC50 (read off the curve) of hIL36β, NFκB-luciferase RLU, no antibody [10]: 0.003 nM; EC50 (read off the curve) of hIL36β, NFκB-luciferase RLU, in the presence of 0.1 nM REGN6489 [11]: 0.005 nM; EC50 (read off the curve) of hIL36β, NFκB-luciferase RLU, in the presence of 0.3 nM REGN6489 [11]: 0.01 nM; EC50 (read off the curve) of hIL36β, NFκB-luciferase RLU, in the presence of 1 nM REGN6489 [11]: 0.03 nM; EC50 (read off the curve) of hIL36β, NFκB-luciferase RLU, in the presence of 3 nM REGN6489 [11]: 0.1 nM; EC50 (read off the curve) of hIL36β, NFκB-luciferase RLU, in the presence of 9 nM REGN6489 [11]: 0.3 nM; EC50 (read off the curve) of hIL36β, NFκB-luciferase RLU, no antibody [11]: 0.002 nM
68 RU | 0.000616 s⁻¹ | 19 min | 74 RU | 0.000544 s⁻¹ | 21 min | 98 RU | 0.00139 s⁻¹ | 8 min | 77 RU | 20.7 nM | 0.00134 s⁻¹ | 64800 M⁻¹ s⁻¹ | 9 min | 51 RU | 7.87 nM | 0.000406 s⁻¹ | 51500 M⁻¹ s⁻¹ | 28 min | 91 RU | H4H14728P (antibody, human IgG4 S228P, kappa, V domains shown) VH: QVQLQESGPGLVKPSQTLSLTCTVSGGSISSADYYWSWIRQHPGKGLEWIGSIYYTGSTYYNPSLKSRLTISIDTSENQFSLKLTSLTAADTAVYYCASEEANWGSHFDSWGQGTLVTVSS VL: DIQMTQSPSSLSASVGDRVTITCRASQSIDNFLNWYQQKPGKAPKLLIYAASSLQSGVPSRFSGSGSGTDFTLTISSLQPEDFASYYCQHSHSAHPITFGQGTRLEIKR | koff [6]: 0.00191 s⁻¹; t½ [6]: 6 min
23 RU | 0.00152 s⁻¹ | 8 min | 36 RU | 0.00137 s⁻¹ | 8 min | 43 RU | 0.00361 s⁻¹ | 3 min | 41 RU | 48.2 nM | 0.00322 s⁻¹ | 66800 M⁻¹ s⁻¹ | 4 min | 33 RU | 15.9 nM | 0.000951 s⁻¹ | 59800 M⁻¹ s⁻¹ | 12 min | 40 RU | H4H14731P (antibody, human IgG4 S228P, kappa, V domains shown) VH: QLQLQESGPGLVKPSETLSLTCTVSGGSISSSNYYWGWIRQPPGKRLEWIGSIYYSGSTYYNPSLKTRVTISVDTSKNQFSLKLTSVTAADTAVYYCAREEAAALTHFDFWGQGTLVTVSS VL: DIQMTQSPSSLSASVGDRVTITCRASQSISNYLNWYQQKPGKAPKLLIFAASSLQSGVPSRFSGSGSGTDFTLTISSLQPEDFATYYCQHSHSSHPITFGQGTRLEIKR | koff [6]: 0.00538 s⁻¹; t½ [6]: 2 min
1 RU | – | – | 1 RU | – | – | 0 RU | – | – | 4 RU | – | – | – | – | 1 RU | – | – | – | – | -1 RU | H4H14757P (antibody, human IgG4 S228P, kappa, V domains shown) VH: EVQLVESGGGLVQPGRSLRLSCTASGFTFDDYAMHWVRQAPGKGLEWVSGIRWNGGSIGYVDSVKGRFTISRDNAKKSLHLQMNSLKTEDTALYYCAKDIGDILTGFYGEYGMDVWGQGTTVTVSS VL: DIQMTQSPSSLSASEGDRVTITCRASQSISSYLNWYQQKAGKAPNLLIYAASSLQSGVPSRFSGSGSGTEYTLTISSLQPEDFATYYCQQSYIIPYTFGQGTKLEIKR | –
1 RU | – | – | 0 RU | – | – | 0 RU | – | – | -1 RU | – | – | – | – | -1 RU | – | – | – | – | 1 RU | H4H14758P (antibody, human IgG4 S228P, kappa, V domains shown) VH: EVQLVESGGGLVQPGRSLRLSCAASGFTFDDYAMHWVRQAPGKGLEWVSSVRWNGGIIGYADSVKGRFTISRDNAKNSLYLQMNSLRPEDTALYYCAKDIGDVLTGYYGEYGMDVWGQGTTVTVSS VL: DIQMTQSPSSLSASVGDRVTIACRASQSITTYLNWYQQKPGKAPKLLIYAASSLQSGVPSRFSGSGSGTDFTLTISSLQPEDFATYYCQQSYISPYTFGQGTKLEIKR | –
